Source: patent US8889408B2, “Factor taking part in transcription control” (Sony Corporation, priority 2002, dated 2014)

Assays:
retinoic acid receptor = test: RAR reporter CAT analysis in HepG2 cells; format: cell-based; conditions: pcDNA3-HDART 0, 0.5, 1.0 μg; ATRA 10^−8 M; HepG2 cells
Experimental: Since it is shown in the above example that HDART is able to interact with Skip, the functional role of HDART on the transcription route ascribed to a nuclear receptor was analyzed. First, the effect of HDART on the transcription regulation by retinoic acid receptor was analyzed. For this purpose, the CAT analysis was made using a RAR (retinoid acid receptor) reporter plasmid incorporating a thymidine kinase minimum promoter (pTREpal-tata) and CAT gene therein downstream of a retinoid response element.
More particularly, pcDNA3-HDART, capable of steadily expressing HDART, and, at the same time, RAR reporter plasmid, were transfected into HepG2 cells by use of Effectene kit (QIAGEN™). It is to be noted that the pcDNA3-HDART expression vector was introduced in different amounts of 0, 0.5 and 1.0 μg, and the amount of DNA in the respective transfections was equalized at 1 μg by adding the appropriate amount of a vacant vector of pcDNA. After the transfection, growth was made in the presence (10^−8 M) or absence of ATRA and the CAT activity was measured. The results of the measurement (FIG. 6) are indicated in terms of values corrected on the basis of the CAT activity obtained after introduction of 1.0 μg of a vacant vector in the absence of ATRA. In addition, the average of the results of three experiments and a standard deviation in terms of an error bar are also shown.
Next, the influence of the overexpression of N4TPR on the transcription from RAR or a glucocorticoid responsive promoter was checked. It will be noted that this test was made in the same manner as in the reporter analysis set out in Example 4, but using GFP-N4TPR expression vector (0, 0.3 and 0.5 μg).

HDAC3 = HDAC3 (Homo sapiens, UniProt O15379); test: GST pulldown analysis; format: binding; conditions: GST-HDART fused protein versus GST protein
Chain of HDAC3 (O15379 whole entry, species assumed, the tested form may be a part): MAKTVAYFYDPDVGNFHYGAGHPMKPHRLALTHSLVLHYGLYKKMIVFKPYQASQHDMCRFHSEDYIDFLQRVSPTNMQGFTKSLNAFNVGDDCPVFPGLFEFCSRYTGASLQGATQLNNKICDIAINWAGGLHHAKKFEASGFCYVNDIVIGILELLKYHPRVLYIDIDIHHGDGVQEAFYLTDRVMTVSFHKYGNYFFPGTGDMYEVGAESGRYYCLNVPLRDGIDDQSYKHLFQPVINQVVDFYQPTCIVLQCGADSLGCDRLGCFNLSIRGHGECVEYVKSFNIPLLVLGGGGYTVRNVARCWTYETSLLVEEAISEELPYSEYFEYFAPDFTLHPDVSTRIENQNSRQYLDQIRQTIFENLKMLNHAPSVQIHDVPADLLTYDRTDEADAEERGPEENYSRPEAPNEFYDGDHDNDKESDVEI
Excerpt: Further, the direct interaction between HDART and HDAC3 was investigated by GST pulldown analysis. The GST pulldown analysis was essentially carried out according to a known procedure (Tzamarias, D., and Struhl, K. (1995) Genes Dev 9(7), 821-31.). Using TNT (Registered Trademark) in vitro transcription/translation system (Promega), the in vitro translation of HDAC3 was made in the presence of ^35S-methionine. GST protein or GST-HDART fused protein was, respectively, expressed within Escherichia coli, followed by purification in a GST binding buffer solution (50 mM tris-HCl, 200 mM LiCl, 0.5% NP40, 5 mM EDTA, 1 mM PMSF) by use of glutathione sepharose. A binding reaction solution containing GST-HDART fused protein or control GST protein (about 1 μg) and ^35S-radio-labeled in vitro translation product (10 μl) in 1 ml of the GST binding buffer solution was prepared. This reaction solution was incubated at 4° C. for one hour while shaking, after which the resulting the sepharose-GST protein complex was washed five times with the GST binding buffer solution. […] It was confirmed by Coomassie brilliant blue staining that the GST fused protein was equally electrophoresed, and ^35S-radio-labeled HDAC was detected according to autoradiography.

Skip = molecular target: T1, Skip (Homo sapiens, UniProt Q13573); test: Yeast two-hybrid analysis (β-galactosidase) of HDART-Skip interaction; format: binding; set-up: expressed in transfected cells; host or cells: Saccharomyces cerevisiae Y190; conditions: Gal4DBD-HDART and deletion mutants with Gal4AD-Skip; β-galactosidase activity
T1 sequence (Q13573 1-536): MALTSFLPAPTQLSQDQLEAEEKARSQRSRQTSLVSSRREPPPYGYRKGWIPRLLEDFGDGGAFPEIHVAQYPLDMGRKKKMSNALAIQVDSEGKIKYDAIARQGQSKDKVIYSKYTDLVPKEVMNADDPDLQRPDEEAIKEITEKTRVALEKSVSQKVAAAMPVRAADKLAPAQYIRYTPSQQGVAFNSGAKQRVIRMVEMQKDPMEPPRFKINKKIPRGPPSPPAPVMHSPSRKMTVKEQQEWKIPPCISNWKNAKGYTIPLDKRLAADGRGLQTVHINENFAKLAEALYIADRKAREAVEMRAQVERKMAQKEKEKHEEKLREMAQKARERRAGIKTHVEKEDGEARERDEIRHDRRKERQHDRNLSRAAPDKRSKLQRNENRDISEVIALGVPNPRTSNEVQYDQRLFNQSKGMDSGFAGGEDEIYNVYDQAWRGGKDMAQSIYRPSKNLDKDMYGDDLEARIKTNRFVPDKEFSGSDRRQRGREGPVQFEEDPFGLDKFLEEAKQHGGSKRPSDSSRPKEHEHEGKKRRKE
Excerpt: In order to isolate a protein that binds to this HDART, a yeast two-hybrid system was used. More particularly, a yeast MATCHMAKER two-hybrid analysis kit (Clontech) was used for the isolation. The ORF full length of HDART was inserted so that it and the Gal4 DNA binding domain reading frame were aligned in the same frame with each other within pAS-1 vector (Clontech). This bait plasmid was transformed into Saccharomyces cerevisiae Y190 along with pACT2 prey plasmid whose HeLa cDNA (Clontech) had been sub-cloned. The screening for clones into which both plasmids were introduced was carried out according to the kit protocol. […]
For mapping of regions on the Skip taking part in the interaction with HDART, a series of deletion mutations where various regions on Skip (N-terminus region (codon 1-220), nuclear hormone binding region (NHR binding, codon 221-388), and tran-activation region (TA, codon 438-536) were deleted, and the interaction between HDART and mutated Skip was analyzed according to the yeast two-hybrid analysis using Gal4DBD-HDART as set forth in Example 2. The results of the analysis are shown in FIG. 5A. The sign “+” indicated at the right of FIG. 5A indicates the observation of the interaction by the filter lift analysis of β-galactosidase activity, and the number of “+” indicates the relative intensity of the interaction. […]

B1: HDART: HDAC associated repressor TPR protein, 855 amino acids, SEQ ID NO: 2; transcription repressing factor, used as fusions or expressed from vector (protein, listed as Homo sapiens)
chain: MVVMARLSRPERPDLVFEEEDLPYEEEIMRNQFSVKCWLRYIEFKQGAPKPRLNQLYERALKLLPCSYKLWYRYLKARRAQVKHRCVTDPAYEDVNNCHERAFVFMHKMPRLWLDYCQFLMDQGRVTHTRRTFDRALRALPITQHSRIWPLYLRFLRSHPLPETAVRGYRRFLKLSPESAEEYIEYLKSSDRLDEAAQRLATVVNDERFVSKAGKSNYQLWHELCDLISQNPDKVQSLNVDAIIRGGLTRFTDQLGKLWCSLADYYIRSGHFEKARDVYEEAIRTVMTVRDFTQVFDSYAQFEESMIAAKMETASELGREEEDDVDLELRLARFEQLISRRPLLLNSVLLRQNPHHVHEWHKRVALHQGRPREIINTYTEAVQTVDPFKATGKPHTLWVAFAKFYEDNGQLDDARVILEKATKVNFKQVDDLASVWCQCGELELRHENYDEALRLLRKATALPARRAEYFDGSEPVQNRVYKSLKVWSMLADLEESLGTFQSTKAVYDRILDLRIATPQIVINYAMFLEEHKYFEESFKAYERGISLFKWPNVSDIWSTYLTKFIARYGGRKLERARDLFEQALDGCPPKYAKTLYLLYAQLEEEWGLARHAMAVYERATRAVEPAQQYDMFNIYIKRAAEIYGVTHTRGIYQKAIEVLSDEHAREMCLRFADMECKLGEIDRARAIYSFCSQICDPRTTGAFWQTWKDFEVRHGNEDTIKEMLRIRRSVQATYNTQVNFMASQMLKVSGSATGTVSDLAPGQSGMDDMKLLEQRAEQLAAEAERDQPLRAQSKILFVRSDASREELAELAQQVNPEEIQLGEDEDEDEMDLEPNEVRLEQQSVPAAVFGSLKED
For B1, the “ATRA-induced CAT activity” value (retinoic acid receptor) was “inhibited by HDART in a concentration dependent manner”, the “pulldown of in vitro translated HDAC3” value (HDAC3) was “pulled down” and the “interaction with Skip” value (Skip) was “able to directly interact with Skip”.
